{"source": "patent US10227575B2", "about": "“Multi-domain enzymes having cutinase activity, compositions comprising same and uses thereof” (OZYMES, priority 2015, dated 2019)", "molecules": {"B1": {"name": "KrCUT: mature Kineococcus radiotolerans cutinase, amino acids 34-294 of SEQ ID NO: 1; SEQ ID NO: 6 (protein)", "chain": "ATCSDVDVVFARGTGETPGLGVVGGPFVRSLTGELSDRTVTSHAVDYAASSSQASAGPGATAMSAHVREVAAACPSTRFVLGGYSQGATVTDIALGIRTGTTTGTPVPAELAGRVAAVVVFGNPLGLSGRTIATASSTYGPKSKDYCNSSDSVCGSAPKTGTGGHLSYASNGSTTDGARFAAGLVRAAGTPTTPTPTPTPTPVPTTCVRDSTRDHVAADRAVSLYGRAYARGSRDSLGATSSYNVVSLQQVEGGWRLVTAC", "modifications": "Kineococcus radiotolerans; (1)..(261) KrCUT (lacking residues 1-33 of ssKrCUT)"}}, "test": "Adsorption assay on PHB granules (Langmuir isotherm)", "type": "binding", "description": "Purified KrCUT of concentrations ranging from 0.16 to 3.2 mg/mL were mixed with 25 mg PHB in 50 mM sodium phosphate (pH 8.0) in a total volume of 1 mL and mixed by gently shaking for 3 h. The PHB polymer was removed by centrifugation and the concentration of protein in the supernatant was determined by the BCA method. The concentration of bound protein at a particular concentration of cutinase was calculated as the difference between a control without added PHB and free cutinase after incubation with PHB.\nAdsorption assays were carried out following procedures of Kasuya et al. (1999). Purified KrCUT and KrCUT189 at concentrations ranging from 0.16 to 3.2 mg/mL were added to a suspension of 25 mg PHB in 50 mM sodium phosphate (pH 8.0) in a total volume 1 mL. The mixture was incubated at room temperature with gentle shaking for at least 3 h. The PHB polymer was removed by centrifugation and the concentration of protein in the supernatant was determined by the BCA method. The concentration of bound protein at a particular concentration of cutinase was calculated as the difference between a control without added PHB and free cutinase after incubation with PHB. An isotherm of [Bound](mg/mg PHB) vs [Free] (mM) was generated and binding parameters were determined by non-linear regression using the Langmuir equation:\n[formula] where [E]=Ead+[E]e, is the concentration of the protein added; Emax is the maximum amount of protein adsorbed on the polyester granules, and K is the adsorption equilibrium constant of the protein."}
{"molecule": "B1", "values": [{"measurement": "binding to PHB", "value": "binds efficiently"}, {"measurement": "degradation of PHB", "value": "did not degrade"}, {"measurement": "adsorption equilibrium constant (K)", "setting": "25° C., pH 8.0", "value": "0.12±0.03", "unit": "ml/mg PHB"}, {"measurement": "maximum amount of cutinase absorbed on the PHB granules (Emax)", "setting": "25° C., pH 8.0", "value": "23.68 ± 0.03", "unit": "µg/mg"}]}
